{"source": "patent US9895420", "proteins": {"B1": {"name": "neutrophil elastase (Athens Research & Technology) (protein)", "chain": "IVGGRRARPHAWPFMVSLQLRGGHFCGATLIAPNFVMSAAHCVANVNVRAVRVVLGAHNLSRREPTRQVFAVQRIFENGYDPVNLLNDIVILQLNGSATINANVQVAQLPAQGRRLGNGVQCLAMGWGLLGRNRGIASVLQELNVTVVTSLCRRSNVCTLVRGRQAGVCFGDSGSPLVCNGLIHGIASFVRGGCASGLYPDAFAPVAQFVNWIDSIIQ"}}, "biological_target": "chimeric-IL-1Ra (IL-1beta propeptide residues 1-120, HindIII-derived Lys-Leu linker, mature IL-1Ra)"}
{"protein": "B1", "values": [{"measurement": "cleavage of chimeric-IL-1Ra, Western blot with anti-IL-1Ra antibody", "value": "chimeric-IL-1Ra is cleaved to form a ˜20 kDa fragment, comparable in size to IL-1Ra"}]}
